The text below walks through data of patent US20220195037A1 (AstraZeneca / MedImmune, published 2022).

The experiment has as its target T1, Lectin-like oxidized low density lipoprotein receptor-1 (LOX1), expressed on cells (UniProt P78380 1-273, limits assumed).
T1 construct: whole, on cells; Also used as the target for the functional rows, where it is endogenous LOX1 on patient-derived pancreatic tumor cells, cancer cell lines and cardiomyocytes; also called LOX1-expressing cells; cells overexpressing LOX1
As to the kind of experiment: Western blot of lysates of human aortic endothelial cells, membrane probed with LX5140110 at 1 µg/ml and anti-human-Fc-HRP. The source says:
Inhibition of LOX1 can reduce chemotherapy-induced cardiomyocyte damage. While the combination of chemotherapy and anti-CSC targeted therapies will likely be useful in the clinic, it is known that many chemotherapies have unintended harmful side effects in addition to anti-tumor activity. One such side effect is cardiac damage that can lead to cardiomyocyte death and heart failure. […] First, we examined the expression of LOX1 in response to doxorobucin treatment in human aortic endothelial cells (HAEC) and embryonic stem cell derived cardiomyocytes. Oxidized LDL (Ox-LDL) is a conventional ligand of LOX1 and was added as a control, since previous reports show an increase of LOX1 in response to Ox-LDL in rat cardiac muscle cells (Spallarossa et al., (2005)). Forty-thousand cells were plated in a 96-well plate and treated with media alone or media containing 5 μM doxorubicin for 24 hours. The cells were then scraped and lysed with 1× RIPA buffer containing protease inhibitors on ice for 1 h. Loading buffer was added to each sample followed by heating for 10 min at 90° C. Twelve microliters of sample was loaded per lane in a 4-12% bis-tris gradient gel. The gels were run for 40 min at 200V in MOPS buffer. The proteins were transferred onto a nitrocellulose membrane using iBlot. The membrane was blocked overnight with casein solution. […]
Background: In western blotting, separated proteins are transferred to a membrane and probed.

B1: LX5140110 (antibody, V domains shown)
VH: QVQLVQSGAEVKKPGASVKVSCKVSGYTLTELSMHWVRQAPGKGLEWMGGFDPEDFKYHTHQKFQGRVTMTEDTSTDTAYMELSSLRSEDTAVYYCALVWGTQGKGVRGWDYYYGMDVWGQGTTVTVSS
VL: QSVVTQPPSVSGAPGQRVTISCTGSSSNIGAGYDVHWYQQLPGTAPKLLIYGNSNRPSGVPDRFSGSKSGTSASLAITGLQAEDEADYYCQSYDSSLSGWVFGGGTKLTVL
notes: Monoclonal antibody; It was detected with an anti-human-Fc antibody, and the controls were non-specific IgG1; also called LOX1-specific monoclonal antibody; LOX1 monoclonal antibody
On to B1, for which the binding result is “binds”.
